In the nanobody polyreactivity screen of Harvey et al. (2022):

Assay: yeast display, Sf9 membrane polyspecificity reagent, FACS + sequencing; frameworks hold sequencing errors
Summary of the method: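 Galactose induction of a Saccharomyces cerevisiae BJ5465 synthetic nanobody display library ran 36–48 hours. The cells were then stained for 1 hour at 4 °C with 10% biotinylated, detergent-solubilized Sf9 membrane reagent, pulled down on streptavidin microbeads and FACS-sorted into low and high (top ~1%) gates on expression and reagent-binding fluorescence. Labels for polyreactivity follow the gate of origin.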

Row | Sequence | polyreactivity (PSR sort gate)
1 | QVQLVESGGGLVQAGGSLRISCAASGRIFNYYDMGWYRQAPGKERELVAAISWRGTSTRYADSVKGRFTISRDNAKNTVYLQMQSLKPEDTAVYYCAADDYARRFSFKYDYWGQGTQVTVSS | high polyreactivity
2 | QVQLVESGGGLVQAGGSLRLSCAASGRTFYFNAMGWYRQAPGKERELVAAITNSGGSTYYADSVKGRFTISRDNAKNTVYLQMNSLKPEDTAVYYCAATYKDGYWLVPGYGYWGQGTQVTVSS | low polyreactivity
3 | QVQLVESGGGLVQAGGSLRLSCAASGRIFVKYAMGWYRQAPGKERELVAAIRSGGSTYYADSVKGRFTISRDNAKNTVYLQMNSLKPEDTAVYDCAADRNKHHYYTEPYDYWGQGTQVTVSS | low polyreactivity
4 | QVQLVESGGGLVHAGGSLRLSCYATGIILDRYTMGWYRQAPATERELVAAISRSGGITYYADSVKGRFTISRDNAKNTVYLQMNSLKQEDTAVYYCAAKYFDHRQTAYEYWGQGTHVTVSS | high polyreactivity
5 | QVQLVESGGGLVQAGGSLRVSCAASGRTFWTNAMGWYRQAPGKEREILAAISWRGASTFYADSVKGRFTISRDNAKNTVYLQMNSLKPEDTAVYYCAAQSRTRSFYGKYDSWGQGTQVTVSS | low polyreactivity
6 | QVQLVDSGAGLVQAGGSLRLSCAASGRIFYSYAMGWYRQAPGKDRELVARITRGSSTYYADSVKGRFTISRDNAKNTVYLQMNSLKPEDTAVYYCAKSRYTALTNHWSHDYWGQVTQVTVSS | low polyreactivity
7 | QVQIVESGGGLVQAGGSLRLSCAASGIIFVRYDIGWYRPAPGKERELVAAISWSGGRTYYADSVKGRFTISRDNAKNTVYLQMNSLKPEDTEVYYCNAKGSYWWYQKDYWGQGTQVTVSS | high polyreactivity
8 | QVQLVESGGGLVQAGGSLRLSCAASGRTLWSYTMGWYRQAPGKERELVARITIGGSTNYADSVKGRFTISRDNAKNTVYLQMNSLKPEDTAVYYCNARASYSYGSYLSKSYGFDYWGQGTQVTVSS | high polyreactivity
9 | QVQLVESGGGLVQAGGSLRLSCAASGSTLISYTMGWYRQAPGKERELVAAITSAVTTYYADSVKGRFTISRDNAKNTVYLQMNSLIPEDTAVYDCNAVPDTRSGELDYWGQGTQVTVSS | low polyreactivity
10 | QVQLVESGGGLVQAGGSLRLSCAASGGIFDIYAMGWYRQAPGKERELVAANRGSGGRTYYADSVKGRFTISRDNAKNTVYLQMNSLKPEDTAVYYCAARPSIVTGLRYGYWGQGTQVTVSS | high polyreactivity
11 | QVQLQESGGGLVQAGGSMRLSCAASGYNTIEVTRACFARRRAKNANLLPLLITVVLPIKRIAYNTISRDNAKNTVYLQMNSLKPEDTAVYNCAANTIGTDLYEYWGQGTQATVSS | low polyreactivity
12 | QVQLVESGGGLVQAGGSLRLSCAASGPTFGVNAMGWYRQAPGKERELVAVISSTGSTNYADSVKGRFTISRDNAKNTVYLQMNSLKPEDTAVYYCAVGPNSVGNRSYGFDYWGQGTQVTVSS | low polyreactivity
13 | QVQLVESGGGLVQAGGSLRLSCAASGYIFIRNAMGWYRQAPGKERELVAAISWTGGSTYYADSVKGRFTISRDNAKNTVYLQMNSLKPEDTAVYYCNKYYRAWLLWDYGYWGQGTQVTVSS | high polyreactivity
14 | QVQLVESGGGLVQAGGSLRLSCAASGRIFTGNVMGWYRQAPGKERELVAAITYRGGSTYYADSVKGRFTISRDNAKNTVYLQMHSLKPEDTAVYYCNTRWDPYGYDYWGQGTQVTVSS | low polyreactivity
15 | QVQLVESGGGLVQEGGSLRLSCAASGRISTYYTMGWYRQAPGKERELVAAISWSGTSTYYADSVKGRFTISRDNAKNTVYLQMNSLKPEDTAVYYCNARWRYPLDSVTDDYWGQGTQVTVSS | high polyreactivity
16 | QVQLVESGGGLVQAGGSLRLSCAASGNIFEYYAMGWYRKAPGKERELVATITSGGSTNYADSVKGRFTISRDNAKNTVYLQMNSLKPEDTAVYYCNADIISVSVYYFIVEYDYWGQGTQVTVSS | low polyreactivity
17 | QVQLVESGGGLVQAGGSLRLSCADSGSIFGVYTRGWYSQAPGKERELVAAISGSGGSTYYADSVMGRFTISRDNAKNTVYFQMNSLIPEDTGVDYCATRFPNIPPYDSWGQGTQVTVSS | low polyreactivity
